According to PMC3528108:
Read-outs that look alike come from different tables or passages of the source.

What was measured:
GST-TRF2 [1] = target: T1, GST-TRF2 (human, UniProt Q15554 1-542); test: ELISA
GST-TRF2 [2] = target: T1, GST-TRF2; test: ELISA; remark: listed apart in the source

T1 sequence (Q15554 whole entry): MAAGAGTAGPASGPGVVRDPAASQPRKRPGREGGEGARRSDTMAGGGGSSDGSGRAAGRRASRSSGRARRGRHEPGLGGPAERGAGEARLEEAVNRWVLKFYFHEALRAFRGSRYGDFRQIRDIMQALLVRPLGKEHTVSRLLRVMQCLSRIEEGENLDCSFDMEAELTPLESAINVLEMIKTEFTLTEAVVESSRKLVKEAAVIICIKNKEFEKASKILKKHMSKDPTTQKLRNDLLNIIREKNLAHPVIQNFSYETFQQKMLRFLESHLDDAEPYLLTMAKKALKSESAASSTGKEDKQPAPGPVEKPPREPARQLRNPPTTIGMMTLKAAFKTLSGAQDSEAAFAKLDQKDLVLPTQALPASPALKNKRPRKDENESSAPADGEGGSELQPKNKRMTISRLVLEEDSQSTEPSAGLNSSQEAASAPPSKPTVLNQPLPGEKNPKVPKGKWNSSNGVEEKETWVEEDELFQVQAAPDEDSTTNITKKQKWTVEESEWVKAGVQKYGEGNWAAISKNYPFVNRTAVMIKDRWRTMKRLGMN

Row | Binder | binding result (GST-TRF2 [1]) | binding result (GST-TRF2 [2])
1 | AGGGGGCCGUGGGGUGGGAGCUGGGG (structured_RNA) [BCL2 RNA G-quadruplex] | binds | 
2 | UUACCGUUACCGUUACCGUUACCG (ssRNA) [TERRA-mut] |  | no binding
3 | AGGGAGGGGCGGGUCUGGG (structured_RNA) [NRAS RNA G-quadruplex] | binds | 
